Data reported in the Human Domainome abundance scans (Beltran et al. 2025).
± gives the uncertainty stated by the source.

B1: MEF2-activating motif and SAP domain-containing transcriptional regulator, residues 170 to 204; numbered along this chain, Q6ZN01 (parent)
chain: LKLEELTVSELRQQLRLRGLPVSGTKSMLLERMRG

Variants of: B1
Experiment: abundance fitness (aPCA) (normalised: wild type 0, dead -1); higher = more abundant; growth selection in yeast, the domain comes from the species named
Details: Homo sapiens

Variant | abundance fitness
R32V | -0.368 ± 0.12
R32W | -0.554 ± 0.074
R32S | -0.483 ± 0.11
R34N | 0.21 ± 0.12
R34I | -0.323 ± 0.29
G19H | -0.211 ± 0.16
G19I | -0.417 ± 0.19
G19P | -0.558 ± 0.29
T25S | 0.004 ± 0.069
T25P | -0.29 ± 0.068
R16Q | -0.207 ± 0.18
R16D | -0.331 ± 0.09
R16S | -0.095 ± 0.066
R16L | -0.027 ± 0.067
R16C | -0.107 ± 0.08
V22C | -0.255 ± 0.13
V22D | -0.046 ± 0.096
V22W | -0.595 ± 0.12
V22N | -0.407 ± 0.17
V22E | 0.025 ± 0.17
V22I | -0.262 ± 0.24
V22S | -0.168 ± 0.078
V22Q | -0.108 ± 0.068

Variant | abundance fitness
V22A | 0.052 ± 0.1
R12Q | -0.016 ± 0.097
R12D | -0.488 ± 0.11
R12K | -0.072 ± 0.09
K26W | -0.361 ± 0.15
K26R | 0.048 ± 0.069
L15M | -0.185 ± 0.16
L15Y | -0.661 ± 0.078
L15C | 0.149 ± 0.065
L15R | -0.712 ± 0.063
E5P | -0.335 ± 0.19
E5A | -0.218 ± 0.069
E5V | -0.329 ± 0.088
E31P | -0.992 ± 0.42
E31T | -0.348 ± 0.096
E31N | -0.238 ± 0.11
E31W | -0.755 ± 0.18
E31M | -0.343 ± 0.13
G35R | -0.436 ± 0.11
G35L | -0.074 ± 0.081
M33Q | 0.04 ± 0.25
M33N | -0.613 ± 0.34
S27W | -0.23 ± 0.06

Variant | abundance fitness
S27H | -0.246 ± 0.091
L3E | -0.249 ± 0.1
L29Q | -0.486 ± 0.085
L29G | -0.455 ± 0.053
L29I | -0.749 ± 0.19
L29Y | -0.469 ± 0.19
E10C | -0.678 ± 0.085
E10R | -0.552 ± 0.072
E10W | -0.728 ± 0.11
T7A | -0.519 ± 0.18
T7C | -0.594 ± 0.17
T7E | -0.347 ± 0.072
R18K | -0.119 ± 0.068
R18A | -0.009 ± 0.085
R18W | -0.147 ± 0.085
Q13K | 0.015 ± 0.079
Q13F | -0.101 ± 0.21
Q13G | -0.251 ± 0.061
S9E | 0.181 ± 0.074
S9L | -0.275 ± 0.1
S9G | -0.111 ± 0.057
E4M | -0.41 ± 0.071
E4P | -0.394 ± 0.29

Variant | abundance fitness
E4I | -0.464 ± 0.23
G24P | -0.829 ± 0.095
G24V | -0.828 ± 0.069
G24E | -0.335 ± 0.084
G24R | -0.867 ± 0.1
L17Q | -0.032 ± 0.093
L17R | -0.155 ± 0.056
L17E | -0.089 ± 0.066
L17C | -0.102 ± 0.16
L17W | -0.307 ± 0.089
K2R | -0.042 ± 0.1
K2S | -0.201 ± 0.11
K2L | -0.444 ± 0.08
K2E | 0.007 ± 0.067
L1N | 0.092 ± 0.45
L1E | 0.136 ± 0.086
L1V | -0.134 ± 0.11
L1Y | 0.02 ± 0.24
L1G | -0.364 ± 0.21
M28C | -0.393 ± 0.25
M28L | -0.106 ± 0.058
M28N | -0.402 ± 0.19
M28W | -0.839 ± 0.29

Variant | abundance fitness
M28T | -0.081 ± 0.07
S23Q | -0.147 ± 0.11
S23G | -0.007 ± 0.071
S23L | -0.349 ± 0.068
L20W | -0.626 ± 0.089
L20M | -0.005 ± 0.22
L20T | -0.879 ± 0.13
L20K | -0.555 ± 0.11
L20S | -0.731 ± 0.35
V8N | -0.387 ± 0.14
V8W | -0.03 ± 0.18
V8Q | -0.648 ± 0.074
V8K | -0.066 ± 0.11
V8E | 0.026 ± 0.072
V8H | -0.486 ± 0.092
V8R | -0.309 ± 0.063
V8Y | -0.576 ± 0.15
L6I | -0.266 ± 0.13
L6R | -0.458 ± 0.064
L6D | -0.356 ± 0.14
L30G | -0.493 ± 0.09
L30V | -0.099 ± 0.07
L30M | -0.179 ± 0.097

Variant | abundance fitness
L30T | -0.257 ± 0.068
L30K | -0.23 ± 0.11
L11G | -0.657 ± 0.063
L11C | -1.03 ± 0.095
L11A | -0.678 ± 0.11
L11E | -0.864 ± 0.13
L11H | -0.811 ± 0.16
Q14V | -0.222 ± 0.061
Q14P | -0.863 ± 0.097
Q14M | 0.023 ± 0.063
P21Q | -0.317 ± 0.058
P21N | -0.303 ± 0.13
P21M | -0.655 ± 0.23
P21R | -0.39 ± 0.048
P21A | -0.184 ± 0.075
P21C | -0.347 ± 0.096
P21H | -0.727 ± 0.22
P21Y | -0.909 ± 0.11
